Assay results reported in publication PMC7111312 (Virology, 2019).

Target: the molecule itself
Experiment: crystal structure

B1: Wild type CavV 3CLpro (Cavally virus 3C-like protease) (enzyme, Cavally virus (CavV), UniProt F8RL29 1387-1700, looked up)
chain: SAASNPSISHIVLEMPVAINPLIKYTTRTSVSSLRGAVVNGYIYIQRHLFGSKKQEFEACYNNGKGLLNCKNLERSKYDIDSAELIGTLIRIPLHDKHSIPHISIHPDPLSYNGPVTLYLSRYDTELNKDVLCVHTGFMSEGHHDIKTVFGDCGGMLFDPKGRLLGLHCAGSDDVVFMDTTTGKSNIWTSYKLQHPSEIMITLNNEINLPNPANYDFETTKVVYQHPLRNVCATLETLQHLTNKTNAKLPYDSRLLSDFNITAEQYNQYGYYIDYNNFVNNFNRYTTTTIGTKSFETCIKYGLMDNKKPDYYNQ
Question: For B1, which “stoichiometry N” value is on record?
Answer: 2
